Test results published in patent US20230174955A1.

Legend:
[1] = molecular target: full length collagen (with foldON), expressed in Pichia strain PP654 (vector MMV-398); test: cell-based or functional assay
[2] = molecular target: purified collagen derived from strain PP685, added to fermentation supernatant
[3] = molecular target: collagen secreted by strains PP766 and PP767 along with mimiP4H
[4] = molecular target: collagen substrate of the in-vitro hydroxylation reaction with purified secreted mimiP4H

mimi-virus P4H (monomeric prolyl 4-hydroxylase), intracellular, expressed in Pichia strain PP654 from vector MMV-580 (enzyme)
hydroxylation level of collagen (mass spec of gel band; in vivo, PP654 in fermenters) [1]: 17%

B1: secreted mimi-virus P4H from Pichia (vector MMV-644; strains PP765, PP766, PP767), with 6X His tag at the C-terminus (protein)
chain: VLSKSCVSHFRNVGSLNSRDVNLKDDFSYANIDDPYNKPFVLNNLINPTKCQEIMQFANGKLFDSQVLSGTDKNIRNSQQMWISKNNPMVKPIFENICRQFNVPFDNAEDLQVVRYLPNQYYNEHHDSCCDSSKQCSEFIERGGQRILTVLIYLNNEFSDGHTYFPNLNQKFKPKTGDALVFYPLANNSNKCHPYSLHAGMPVTSGEKWIANLWFRERKFSHHHHHH
hydroxylation of added purified collagen in unpurified fermentation supernatant [2]: All reactions showed an increase in the hydroxylation over the pre-reaction levels (~3%) | hydroxylation of secreted collagen in fermentation supernatant [3]: An increase in hydroxylation was observed for both the secreted collagen and added purified collagen | %HyP, colorimetric assay, in-vitro hydroxylation reaction [4]: Ni-NTA purified mimiP4H showed 24% hydroxylation
